# Changes are numbered by the printed parent chain.
# B1: mAb 5D7.2 (antibody, human IgG2, lambda, V domains shown)
# VH: QVQLVQSGAEVKKPGASVKVSCKASGYTFTDYYMNWVRQAPGQGLEWMGWINPNSGGTKYAQKFQGRVTMTRDTSIRTAYMELSRLRSDDTAVYYCAREYGGNSDWFDPWGQGTLVTVSS
# VL: QSVLTQPPSVSGAPGQRVTISCTGSSSNIGAGYDVHWYQQSPGTAPKLLIYGNSNRPSGVPDRFSGSKSGTSASLAITGLQAEDEADYYCQSYDNRLSDSVVIGGGTKLTVQG
# notes: fully human IgG2 lambda, Campaign 2, recombinant
# B2: mAb 5B5.1 (antibody, human IgG2, lambda, V domains shown)
# VH: B1 VH with M34I, K59D, S84N, R87T, N103Y, S104E
# VL: QSVLTQPPSVSGAPGQRVTISCTGSNSNIGAGFDVHWYQQLPGTVPKLLIYGNNNRPSGVPDRFSGSKSGTSASLAITGLQAEDEADYYCQSYDSRLTVFGGGTKLTVLG
# notes: fully human IgG2 lambda, Campaign 2, recombinant; same chains as 5B5.2
# B3: mAb 5H3.1 (antibody, human IgG2, lambda, V domains shown)
# VH: B1 VH
# VL: B1 VL with S41L, T110A
# notes: as for B1
# Biological target: T1, human Orai1 (human, UniProt Q96D31 1-301)
# T1 sequence (Q96D31 whole entry): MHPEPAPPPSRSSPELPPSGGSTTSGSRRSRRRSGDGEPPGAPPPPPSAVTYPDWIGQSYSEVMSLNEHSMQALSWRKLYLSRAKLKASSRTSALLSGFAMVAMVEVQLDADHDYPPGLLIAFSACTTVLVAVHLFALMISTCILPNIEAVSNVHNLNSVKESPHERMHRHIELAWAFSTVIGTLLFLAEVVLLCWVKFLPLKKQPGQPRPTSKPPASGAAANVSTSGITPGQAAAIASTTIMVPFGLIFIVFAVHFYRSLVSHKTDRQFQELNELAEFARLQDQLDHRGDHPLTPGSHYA
# Test: cell-based or functional assay
"IC50 IFN-γ, whole blood Donor A, recombinant mAb","IC50 IFN-γ, whole blood Donor B, recombinant mAb","IC50 IL-2, whole blood Donor A, recombinant mAb","IC50 IL-2, whole blood Donor B, recombinant mAb",Binder
2.67 nM,1.17 nM,3.17 nM,0.8 nM,B1
0.8 nM,42.9 nM,1.34 nM,1.14 nM,B2
0.1 nM,2.55 nM,0.87 nM,1.59 nM,B3

# Biological target: T1, human Orai1
# Test: FACS Kd, AM1-CHO/hOrai1/hSTIM1-YFP cells
# Method: The equilibrium plates were centrifuged at 500 g for 3 minutes and cell pellets were washed twice with 200 μL of ice cold FACS buffer (1×D-PBS+2% FBS). The cells were then incubated with a secondary antibody, goat anti-human Fc Cy5 at 5 μg/mL and 100 μL per well for 1 h on ice in the dark. Following the incubation, the cells were washed twice with 200 μL of ice-cold FACS buffer before flow cytometry analysis. The GeoMean values gated on live cell population measure the bound [Ab]. The inverse of the GeoMean values that reflects theoretical free [Ag] in the equilibrium solution was then calculated. The inverse values of the GeoMean read were used in KinExA® Pro software for analysis and Kd calculation for each antibody. The free [Ag] measure was plotted against the starting concentration of titrating component and from these plots at two different cell concentrations the Kd was obtained from curve fitting using n-curve analysis in KinExA Pro software. […] Shown in Table 14 (below) are the equilibrium dissociation constant (Kd) values of invented mAbs determined by FACS Kd measurement.
row,Kd,Binder
1,0.483 nM,B1
2,0.735 nM,B2
3,0.649 nM,B3
